Assay: soluble on expression in E. coli; label from the status in PepcDB or PDB records

Sequence | soluble on expression in E. coli
MAHHHHHHMNREQIARRIDLVGPSTGAIVGVATWCALHGAEADAILNYVAEKMKHKDTTDAQRASLVYVIHELLLSCATRGVSENAKRSILKAVSLTLPSAVRDTLRQRASDHTAFLIALQKATEWWGTLNLFPAAWLAKLQCTVQDGQESAGHRTTVPSALMQVANLLQRYQHAKEQWVQNRNIKAEEGRTGSGVASGQDTAAPLAGGGAGASSAVVDDAARRCLIALRKAVESRFERNAAFLAWCEAERAELEGRATTSSADSGVVKMAHGTSPHVPTHSGSGSSYSVKEEGGHSGGPSGEPNDDEDVLGSFFS | soluble
MGSDKIHHHHHHMFLDDFHTVTDDRLCITAEQASRFAKCIAGDYNPIHDPDARRFCVPGDLLFALVMARFGLAQRMTFHFKGMVGDSVPLCFAQHGDTVSVTDHHGKVYLEVERGGDITHDAGVIEAFTRRYVAFSGRNFPHYLKPLMEEQGVMFNPQRPLVIYDSMGFSLSRLDVAEAGVAFTGATLDVTGKRGDALLQFQMTDADTVIGHGSKKLVVSGLREYDPPVMDAFVEQFMSLKAHSATTG | not soluble
MSAEGFLAEHAHRRPSSRRRRAAQFGSPLTPGQDETVSDRTTADLERELAMLAYVRDRLRASEGEGFRIPTTAVDQVLDERNSLERSPWDPT | not soluble
MADKENATKIEKMPNSETMKGISSEDVPFEEDIIRNPTSVNCWQRYIDHKLQNKSPAKQMFLIYERALAVFERSYKLWYHYLKYRESTIVNKCPTDNSWRALCDTYERCLMRLHKMPRIWICYCEVMIKRGLITETRRVFDRALRSLPVTQHMRIWTLYIGFLTSHDLPETTIRVYRRYLKMNPKAREDYVEYLIERDQIDEAAKELTTLVNQDQNVSEKGRTAHQLWTQLCDLISKNPVKIFSLNVDAIIRQGIYRYTDQVGFLWCSLADYYIRSAEFERARDVYEEAIAKVSTVRDFAQVYDAYAAFEEREVSIMMQEVEQSGDPEEEVDLEWMFQRYQHLMERKNELMNSVLLRQNPHNVGEWLNRVNIYEGNYNKQIETFKEAVKSVNPKIQVGKVRDLWIGLAKLYEDNGDLDAARKTFETAVISQFGGVSELANVWCAYAEMEMKHKRAKAALTVMQRACVVPKPGDYENMQSVQARVHRSPILWAMYADYEECCGTVESCRKVYDKMIELRVASPQMIMNYAMFLEENEYFELAFQAYEKGIALFKWPGVFDIWNTYLVKFIKRYGGKKLERARDLFEQCLENCPPTHAKYIFLLYAKLEEEHGLARHALSIYNRACSGVDRADMHSMYNIYIKKVQEMYGIAQCRPIFERAISELPEDKSRAMSLRYAQLETTVGEIDRARAIYAHAAEISDPKVHVKFWDTWKNFEVAHGNEATVRDMLRVRRSVEASYNVNVTLTSVQMRVDAERKAQETTTSSNPMDSLDQQQQQPSDGAGSITQVSMNKGNISFVRGAGKTVQQNTTENPDEIDLDEDDDDEEDDGGDADISVKVVPAQIFGNLKLAEEEEEA | soluble
MPCRLTRLFGIEFPIIQAPMAGVQGSALAIAVSEAGGLGSLPCAMLSLEALEAELTAIRSQTAKPINVNFFCHREPVAQAAKQAAWLEQLAPYFAEFNLDPNAQPAGAQRTPYSKAQAEVLAKFKPEVVSFHFGLPDEELLLEIKSWGSKVISTATTVEEALWLEARGADAIIAQGLEAGGHRGHFLSEDLTEQLGTFSLLPQIIAAVEIPVIAAGGIVDATTVRAAMTMGASAVQVGTAYLLCPECNTSAIHREALQSDAAQHTALTNLFSGRPARGIVNRFMAEMGPMNEAVPDFPLASSAVAGLRTAAERLGFWDFSPLWCGQNASGCRAIPAADLTRSFVLSLPSSCVEPQEKSG | soluble
MTIIINMRSGVDEVKLRIAAKLIREGKLVAFPTETVYGLGADALNERAVRRIFEAKGRPADNPLILHIAKFSQVYELAREVPEEAKVLVERFWPGPLTIVLPRKDVVPDVTTGGLDTVAIRMPANEIALKLIELSGKPIAAPSANISGKPSPTSAEHVADDFYGKIECIIDGGETRIGVESTVIDLTEHPPVLLRPGGLPLEEIEKVIGKVRIHPAVFGKKVDTPKSPGMKYKHYAPNAEVIVVEGPREKVKGKITELVKELKERGKKVGVIGSESYNADEFFFLGSSVEEVAKNLFKALRYMDKAGVDVVIAEGVEERGLGLAVMNRLRKASGYKIVKA | soluble
MGSDKIHHHHHHDLLHESYGQVVSEDYVPKTEEDVSYLVNAAYIPWRETLLQWNGVVRAQELCADQDVLPARDGIGWVDGYIYKRWHQHTWTTEDDGVLQGWERTYNGVNTCNRILSQIEEGVISVDGETKEKLIAELKVLRASYYYILIDLYGNVPIVTDFKDTSLPQQSTRKEVFDFIVKEITENMDLLSETPRGYYYGRFNKWAAHTLLAKMYLNAEVWSGTAQWQKCIDECDIVINYAEKSGEYALENNQKDVFVTHNENSKEIIFALPFDEIYVTGWNDFDFHMYTLAPENQDTYQLTARPWGGVCAVPQFINSFDEDDARLEDNYIQGQQYTYSGEILKRSIDGKPLIYTVDVPSIDQSDVDDGFRWGKFEYATGITNRLSNDWPLLRYADVLMMKAESLMRLGKSGAGALVTQVRERAFKNEPEKAQVTDAELMGGSVYDYGRRDSYKTEHDGGTDIKYGRFLDELGWEFCQEGRRRQDMIRFGIFTTKAWFSHDKSDETKNLYPIPNKVLLTNSNLKQNPGYSK | not soluble
MFVRFASAQSVPPGDIQTQPGTKIVFNAPYDDKHTYHIKVINSSARRIGYGIKTTNIKRLGVDPPCGVLDPKEAVLLAVSCDAFAFGQEDTNNDRITVEWTNTPDGAAKQFRREWFQGDGMVRRKNLPIEYNP | soluble
ISFEINGIKITTYPPPFRIFLEIDNKQEFEKLDRIRKNVDVVVLGFPVGHYDLDEVKNKVKQLVDYGYVVGIDAESPRELKEGVRAGASFVFNLNENNFEELEEIRKEAAFVVAPFNTENRGEITIDLVKKAKQKGFDKLIADPVLSPPLRGLVSSIIGYKYVRETLQDIPILMGILNVTELIDADSIGMNALLTAIAGELGISNLLIMEKGKTRWSSWEVSQATKMISVALKENRLPKDIGIDLLVLKDKRRFRESFNADVIVNRRIEPEMDNTGFAKIFVSEDGFGVEWIGKNKITIKGKDGLSIGRELIRRVKDISKEHAVYIGYELAKAEIAYQLDKNYIQDKPLF | not soluble
DTLANAVYLRLMTPLGGWWADPTLGSRLHELSRSKDSNRIDLLACQYAEQALQPLLQDGRASRVQVSSQRQGPGRLLLNIEVAETGGHIRHFQHQVRI | not soluble
LPLCDSLIIWLQTFKTASPCQDVKQLTNGVTMAQVLHQIDVAWFSESWLSRIKDDVGDNWRIKASNLKKVLHGITSYYHEFLGQQISEELIPDLNQITECADPVELGRLLQLILGCAVNCEKKQEHIKNIMTLEESVQHVVMTAIQELMSK | soluble
MSLANRKYFGTDGVRGKVGAYPITPDFALKLGWAAGKVLASQGSKMVLIGKDTRISGYMLESALEAGLAAAGLSAAFTGPMPTPAIAYLTRTFRAEAGIVISASHNPYYDNGIKFFSAKGTKLPDEIEEAIEAMLEQPMDCVESAELGKASRINDAAGRYIEFCKGTFPAHLGLEGYKIVVDCANGATYHIAPNVLRELGAEVIEIGTDPNGLNINEKCGATDVTALQAKVVETKADVGLAYDGDGDRIMMVDHLGNKVDGDQILFIIAREALRSGQLKGGVVGTLMSNMSLEIALKMLGVPFLRANVGDRYVLEKMVENDWTLGGENSGHIIIADKNTTGDGIVASLAVLAAMAQHKLSLNELASAVKLFPQVLINVRFAGGENPLESDAVKSVAAEVEKRLEGKGRILLRKSGTEPLIRVMVECQDAELAQQCAEEIAEAVKKEGHHHHHH | soluble
MQSFTADINEINITNGKLDFSDSSLTPKFSAGIYSLNGDITGLSSNEDSRAKIDLKGKVDKYAPVIIKGSVNPLSHDAFTDIDMLFNGIELTTFTPYSGKFAGYAIDKGKLSLGLNYKLSNNKLVAENNVTLDQLTLGEVVNSEEATSLPIKFALSLLEHHHHHH | not soluble
MSLKTFIKIILLYLMPILAFATELRPGDRLQIKFPGESAFEKSFQLDHDGKISLPEIGTVKLQGMSLLQARTVLTGKLSNAYKDLSKFDLFLKERRLTVTVLGYVKEPGPVDMPIRANVQMAINSAGGLAQGAQLDKLQIRRSSGIIEFDYKHYLDSGDPSSLPKLEPMDVIFIPASPLIGNVQVEFDARTLTASGDAGEDGEAIKVFGEVHRPGTFAFKEDASVMDMIMRAGGVTRYAGIEQIRVIHQGQPYPFDMREYLDTGNPDLMPKIHQGDVIFIPQATEQVKSGSRTVYVMGEVFKPGAMEMGEGSGFYDLLATAGGPTRFAETRQIRIIRADGKVQPFDLQGYVDSQGRTKLPSIQPGDAILVPEKTDMNEKSWLKVHPNRAVRIIGAVNRPGRYEWASEMTLMDLIAHAGGPIASADTAHLQILQQRKNGNTESVSFDLKSFLDEGHHHHHH | not soluble
MGSDKIHHHHHHMSLIERAADKLVKNDMNGFMPGSVSQHDSREGIGPDSLFSSDGVPGKKTGHGRIIKEEVGADRINKAADTKKTVKRIEVDLENLHRKGVVTLHHTKSEIAEQFRLIKRPLLANAFNPDSGVKNGNLIMVTSSLSGEGKSFCSLNLAMSIAMEMDHRVLLVDADVARPSIPATLGFSPEEPGLLDMLRDSQLSISDVMMKTNIKKLTLIPAGRRHTHATELLASQSMHSILVELAQRYHDRVVIFDSPPLLLTSEARVLASQMGQIVLVVEAERTTQQTVKEALQQIEACDVVNLIYNKARAHGSTEYYGYY | not soluble
MSLEAFIRSDQYNFIKSQAYILANGHATANDRGVIQALKSLAIEKIIHVFENLTDEQKELIDTVLTVQNREDAESFLMKIKPYVIPFQEVTAQTLKKLFPKAKKLKLPDMEEMDMKEISYLSWIDKGSSRKFIIAKNDKNKFVGLQGTFQSLNKKSICSLCHGHEEVGMFLVEIKGDIPGTFVKKGNYICKDGVACNQNMKSLDKLQDFIERLKKEGHHHHHH | soluble
MGSDKIHHHHHHMVSTIGIVSLSSGIIGEDFVKHEVDLGIQRLKDLGLNPIFLPHSLKGLDFIKDHPEARAEDLIHAFSDDSIDMILCAIGGDDTYRLLPYLFENDQLQKVIKQKIFLGFSDTTMNHLMLHKLGIKTFYGQSFLADICELDKEMLAYSLHYFKELIETGRISEIRPSDVWYEERTDFSPTALGTPRVSHTNTGFDLLQGSAQFEGKILGGCLESLYDIFDNSRYADSTELCQKYKLFPDLSDWEGKILLLETSEEKPKPEDFKKMLLTLKDTGIFAVINGLLVGKPMDETFHDDYKEALLDIIDSNIPIVYNLNVGHATPRAIVPFGVHAHVDAQEQVILFDYNK | not soluble
MSLQIKVSQFGLNLAHAWATAASSAKKSRIVTFVKLTSSDGAFGFGESAPSSRYGETLETVTAFLAKIDPKQLSFDDVPGSMAYLDKLSSGDFAAKAAVNIALWDGAGKKARKPIYDLLGLGFTENKHITSYTIGIDAPEIIRQKVLEAEQYPVLKLKVGDKNDRETMAILRSIAPAKTVRIDGNEGWKTKEEALKNIEWFAQDKNIEFVEQPMPADSNPKDLAWLKERSPLPLYADESFFAVADVSLCVDCFHGVNVKLVKTAGISGAYEALQAAKKAGLKRMIGCMVESSVLIGAGAHLAELADHLDIDTNLLITNDPFQGTTAEKGIISFAKASEPCGLRVKATPSFVMEGHHHHHH | soluble
MKKSLLGIISILSLTLLFSGCVDNSGAEEQAVLHAYVGAGMQMPMDEIAIEFEEKYGIKVEYDYSGSGALLSKIVASNQGDIFMPGDCSYVYQLQEKEMSTECSNVTKHIPVIAVQKGNPKNITGLSDLGQDDLELALGDSSISIGKLFTKILSKAETKGVNVTEAVNSNTVVTGATVKQVLLYVTEKNVDAAVVWSADAYENSDAVDIVPIESEYNIIKTVPISILSTTEDYDNAKLFYDFVNNEGKEIFEKHGFVALE | not soluble

— the DeepSol protein solubility set
